Results as given in paper PMC13022455, “Oligomerization-dependent and synergistic regulation of Cdc42 GTPase cycling by a GEF and a GAP” (EMBO Reports, 2026).

T1: Cdc24 (S. cerevisiae) (UniProt P11433)
T1 sequence: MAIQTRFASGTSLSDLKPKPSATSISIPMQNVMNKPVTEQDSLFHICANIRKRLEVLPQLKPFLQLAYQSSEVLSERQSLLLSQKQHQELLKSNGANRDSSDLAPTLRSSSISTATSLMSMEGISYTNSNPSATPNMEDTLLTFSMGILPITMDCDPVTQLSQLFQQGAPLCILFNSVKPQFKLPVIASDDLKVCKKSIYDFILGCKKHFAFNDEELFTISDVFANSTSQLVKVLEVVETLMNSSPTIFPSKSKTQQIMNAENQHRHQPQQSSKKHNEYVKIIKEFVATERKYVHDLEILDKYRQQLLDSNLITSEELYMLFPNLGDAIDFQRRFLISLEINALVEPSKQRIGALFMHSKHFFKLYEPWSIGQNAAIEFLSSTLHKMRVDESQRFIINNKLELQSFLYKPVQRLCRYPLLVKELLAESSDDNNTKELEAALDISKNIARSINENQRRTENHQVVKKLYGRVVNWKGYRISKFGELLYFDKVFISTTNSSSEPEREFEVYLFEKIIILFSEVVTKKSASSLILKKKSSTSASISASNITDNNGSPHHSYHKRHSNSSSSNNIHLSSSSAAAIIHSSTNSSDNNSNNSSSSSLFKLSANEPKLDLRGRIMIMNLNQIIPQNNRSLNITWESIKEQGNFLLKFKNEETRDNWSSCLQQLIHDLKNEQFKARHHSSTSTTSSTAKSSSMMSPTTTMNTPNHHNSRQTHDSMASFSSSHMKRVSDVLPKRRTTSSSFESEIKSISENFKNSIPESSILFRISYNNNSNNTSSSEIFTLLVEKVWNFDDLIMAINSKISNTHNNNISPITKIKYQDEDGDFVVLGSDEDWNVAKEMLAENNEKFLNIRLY


Key:
[1] = target: Cdc24-DH3 (incl. mutation L339A, E340A) (S. cerevisiae) (UniProt P11433)
[2] = target: the molecule itself; experiment: SEC-MALS; single purified proteins; Superdex 200 Increase 10/300 GL, SEC buffer (50 mM Tris-HCl pH 7.5, 100 mM NaCl, 10 mM MgCl2, 1 mM 2-mercaptoethanol) with 0.02% sodium azide, 0.5 mL/min; samples 5.7–7.1 µM; fractions analysed by SDS-PAGE and anti-His western blot
[3] = target: T1, Cdc24 (S. cerevisiae)

Row | rate k3,Cdc24-DH3 of Cdc42 GTPase cycling (GTPase-Glo assay) [1] [µM^−2 h^−1] | interaction (synergy) rate k3,X1,X2 of Cdc42 GTPase cycling in Cdc42–Cdc24–Rga2 ((II)) mixtures (GTPase-Glo assay) [3] [µM^−4 h^−1] | interaction (synergy) rate k3,X1,X2 of Cdc42 GTPase cycling in Cdc42–Cdc24–Rga2(I) mixtures (GTPase-Glo assay) [3] [µM^−4 h^−1] | Binder | binding result [2]
1 | 0.702 |  |  | Cdc24-DH3 (incl. mutation L339A, E340A) (enzyme) MAIQTRFASGTSLSDLKPKPSATSISIPMQNVMNKPVTEQDSLFHICANIRKRLEVLPQLKPFLQLAYQSSEVLSERQSLLLSQKQHQELLKSNGANRDSSDLAPTLRSSSISTATSLMSMEGISYTNSNPSATPNMEDTLLTFSMGILPITMDCDPVTQLSQLFQQGAPLCILFNSVKPQFKLPVIASDDLKVCKKSIYDFILGCKKHFAFNDEELFTISDVFANSTSQLVKVLEVVETLMNSSPTIFPSKSKTQQIMNAENQHRHQPQQSSKKHNEYVKIIKEFVATERKYVHDLEILDKYRQQLLDSNLITSEELYMLFPNLGDAIDFQRRFLISAAINALVEPSKQRIGALFMHSKHFFKLYEPWSIGQNAAIEFLSSTLHKMRVDESQRFIINNKLELQSFLYKPVQRLCRYPLLVKELLAESSDDNNTKELEAALDISKNIARSINENQRRTENHQVVKKLYGRVVNWKGYRISKFGELLYFDKVFISTTNSSSEPEREFEVYLFEKIIILFSEVVTKKSASSLILKKKSSTSASISASNITDNNGSPHHSYHKRHSNSSSSNNIHLSSSSAAAIIHSSTNSSDNNSNNSSSSSLFKLSANEPKLDLRGRIMIMNLNQIIPQNNRSLNITWESIKEQGNFLLKFKNEETRDNWSSCLQQLIHDLKNEQFKARHHSSTSTTSSTAKSSSMMSPTTTMNTPNHHNSRQTHDSMASFSSSHMKRVSDVLPKRRTTSSSFESEIKSISENFKNSIPESSILFRISYNNNSNNTSSSEIFTLLVEKVWNFDDLIMAINSKISNTHNNNISPITKIKYQDEDGDFVVLGSDEDWNVAKEMLAENNEKFLNIRLY | 
2 |  |  |  | GAP domain (aa 797–981 from Rga2) (domain or fragment, S. cerevisiae, UniProt Q06407 797-981, looked up, Rga2 GAP domain, S. cerevisiae, aa 797–981 (Smith et al, 2002); plasmid pRV138; also called Rga2's GAP domain; pRV138; source: E. coli BL21 DE3 pLysS, purified (HisTrap Excel, SEC Sephacryl S-300)) EKSTVPIIIRCCIDRIEKDDIGLNMEGLYRKSGSQTLVEEIENEFAQNNSLHSDTLSPKLNALLNQDIHAVASVLKRYLRKLPDPVLSFSIYDALIDLVRNNQLIERLPLNNDKFLDSPQKVTIYEMVLKSLLEIFKILPVEHQEVLKVLAAHIGKVRRCSERNLMNLHNLSLVFAPSLIHDFDG | binds
3 |  | 51.7 | 87 | His-Rga2 (Rga2 tagged with an N-terminal 6His purification tag) (enzyme, S. cerevisiae, UniProt Q06407 1-1009, looked up, plasmid pRV014; Found only as higher-order oligomers in SEC-MALS; also called Rga2(I); pRV014; source: E. coli BL21 DE3 pLysS, purified (HisTrap Excel, SEC Sephacryl S-300); not shown: His6, N-terminal, kept) MSADPINDQSSLCVRCNKSIASSQVYELESKKWHDQCFTCYKCDKKLNADSDFLVLDIGTLICYDCSDKCTNCGDKIDDTAIILPSSNEAYCSNCFRCCRCSNRIKNLKYAKTKRGLCCMDCHEKLLRKKQLLLENQTKNSSKEDFPIKLPERSVKRPLSPTRINGKSDVSTNNTAISKNLVSSNEDQQLTPQVLVSQERDESSLNDNNDNDNSKDREETSSHARTVSIDDILNSTLEHDSNSIEEQSLVDNEDYINKMGEDVTYRLLKPQRANRDSIVVKDPRIPNSNSNANRFFSIYDKEETDKDDTDNKENEIIVNTPRNSTDKITSPLNSPMAVQMNEEVEPPHGLALTLSEATKENNKSSQGIQTSTSKSMNHVSPITRTDTVEMKTSTSSSTLRLSDNGSFSRPQTADNLLPHKKVAPSPNKKLSRSFSLKSKNFVHNLKSKTSEMLDPKHPHHSTSIQESDTHSGWGVSSTHTNIRKSKAKKNPVSRGQSDSTIYNTLPQHGNFTVPEFNHKKAQSSLGSISKKQNSNDTATNRRINGSFTSSSSGHHIAMFRTPPLESGPLFKRPSLSSESAHHRSSSLQTSRSTNALLEDDSTKVDATDESATSLEKDFYFTELTLRKLKLDVRELEGTKKKLLQDVENLRLAKERLLNDVDNLTREKDKQSASSRESLEQKENIATSITVKSPSSNSDRKGSISNASPKPRFWKIFSSAKDHQVGDLESQQRSPNSSSGGTTNIAQKEISSPKLIRVHDELPSPGKVPLSPSPKRLDYTPDGSHLYGSSLQARCAYEKSTVPIIIRCCIDRIEKDDIGLNMEGLYRKSGSQTLVEEIENEFAQNNSLHSDTLSPKLNALLNQDIHAVASVLKRYLRKLPDPVLSFSIYDALIDLVRNNQLIERLPLNNDKFLDSPQKVTIYEMVLKSLLEIFKILPVEHQEVLKVLAAHIGKVRRCSERNLMNLHNLSLVFAPSLIHDFDGEKDIVDMKERNYIVEFILGNYRDIFKQA | binds
